Measured values published in patent publication US20260201033A1 (LTZ THERAPEUTICS, published 2026).

Experiments:
[1] = target: T1, CD79b on Ramos cells and on endogenous B cells of human PBMCs (human, UniProt P40259 29-229); assay: cell-based or functional assay
T1 sequence (looked up): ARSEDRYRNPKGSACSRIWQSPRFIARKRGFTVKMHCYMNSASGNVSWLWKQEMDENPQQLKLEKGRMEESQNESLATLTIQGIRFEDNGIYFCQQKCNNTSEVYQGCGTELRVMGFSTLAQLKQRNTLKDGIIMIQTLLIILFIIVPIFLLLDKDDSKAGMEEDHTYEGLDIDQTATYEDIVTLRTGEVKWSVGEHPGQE

[2] = target: T1, CD79b on Ramos cells and on endogenous …; assay: cell-based or functional assay; remark: listed apart in the source
[3] = target: T1, CD79b on Ramos cells and on endogenous …; assay: cell-based or functional assay; remark: listed apart in the source
[4] = target: T1, CD79b on Ramos cells and on endogenous …; assay: cell-based or functional assay; remark: listed apart in the source
[5] = target: T2, Human CLEC5A His Tag protein (ACROBiosystems, Cat #: CLA-H5243) (human, UniProt Q9NY25 28-188, limits assumed); assay: ELISA, plate coated with human CLEC5A
T2 construct: Bought protein with a His tag; also called recombinant human CLEC5A protein
T2 sequence: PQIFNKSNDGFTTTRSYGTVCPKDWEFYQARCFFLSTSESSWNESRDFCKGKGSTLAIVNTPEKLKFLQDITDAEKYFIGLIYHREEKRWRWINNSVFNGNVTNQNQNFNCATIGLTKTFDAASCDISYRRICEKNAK
Procedure: Protein antigen was aspirated, and wells were washed 3 times with 400 μL of wash buffer (0.05% Tween® 20 in PBS) using a plate washer. Anti-CLEC5A antibodies were prepared as the primary antibody at 5 μg/mL and serially diluted 3-fold through 11 points (diluted concentrations) with reagent buffer (PBS+0.05% BSA). 100 μL of primary antibody was added to appropriate wells and incubated for 1 hour at room temperature. Primary antibody was aspirated, and wells were washed 3 times with 400 μL of wash buffer (0.05% Tween® 20 in PBS) using a plate washer. […] Secondary antibody was aspirated, and wells were washed 3 times with 400 μL of wash buffer (0.05% Tween® 20 in PBS) using a plate washer. […] 100 μL of Fisher 1N Sulfuric Acid (Cat #: SA212-2) stop solution was added to each well and the plate was read in a plate reader at 450 nm. For analysis, OD450 of each antibody was plotted using GraphPad Prism software (Version 9.4.1; GraphPad Software Inc.).

B1: CD79b/5C7 (2+1 A) Fc-optimized (bispecific antibody, human IgG1, kappa)
heavy 1: EQQLVETGGGLIQPGGSLRLSCAASGFTINIDYWISWVRQAPGKGLEWIGIIDPGDGTTYFAIWVSGRFTISFDNSKNTVYLQMNSLRAEDTAVYFCVREFSASAYQYDLWGPGTLVTVSSASTKGPSVFPLAPSSKSTSGGTAALGCLVKDYFPEPVTVSWNSGALTSGVHTFPAVLQSSGLYSLSSVVTVPSSSLGTQTYICNVNHKPSNTKVDKKVEPKSCDGGGGSGGGGSGGGGSEQQLVETGGGLIQPGGSLRLSCAASGFTINIDYWISWVRQAPGKGLEWIGIIDPGDGTTYFAIWVSGRFTISFDNSKNTVYLQMNSLRAEDTAVYFCVREFSASAYQYDLWGPGTLVTVSSASTKGPSVFPLAPSSKSTSGGTAALGCLVKDYFPEPVTVSWNSGALTSGVHTFPAVLQSSGLYSLSSVVTVPSSSLGTQTYICNVNHKPSNTKVDKKVEPKSCDKTHTCPPCPAPELLAGPSVFLFPPKPKDTLMISRTPEVTCVVVDVSHEDPEVKFNWYVDGVEVHNAKTKPREEQYNSTYRVVSVLTVLHQDWLNGKEYKCKVSNKALPLPEEKTISKAKGQPREPQVYTLPPSRDELTKNQVSLSCAVKGFYPSDIAVEWESNGQPENNYKTTPPVLDSDGSFFLVSKLTVDKSRWQQGNVFSCSVMHEALHNHYTQKSLSLSPGK
heavy 2: DIQMTQSPSSLSASVGDRVTITCQASESVDRNNRLAWFQQKPGKPPKLLIYTTSTLASGVPSRFSGSGSGTDFTLTISSLQPEDVATYYCAGYRGAHTDGDAFGGGTKVEIKGGGGSGGGGSGGGGSGGGGSEQQLVESGGGLVKPGGSLRLSCAASGFSFSRSSYMCWVRQAPGKGLEWIGCLSVGDGHTYYASWAKGRFTISKDSAKNSVYLQMNSLRAEDTAVYFCARAPSYSGDGGHGYDLWGPGTLVTVSSDKTHTCPPCPAPELLAGPSVFLFPPKPKDTLMISRTPEVTCVVVDVSHEDPEVKFNWYVDGVEVHNAKTKPREEQYNSTYRVVSVLTVLHQDWLNGKEYKCKVSNKALPLPEEKTISKAKGQPREPQVYTLPPSRDELTKNQVSLWCLVKGFYPSDIAVEWESNGQPENNYKTTPPVLDSDGSFFLYSKLTVDKSRWQQGNVFSCSVMHEALHNHYTQKSLSLSPGK
light: ELVMTQSPATLSVSPGERATLSCRASEDIENYLAWYQQKPGQPPRLLIYRASTLSSGVPARFSGSGSGTEFTLTISSLQSEDFAVYYCQQGYRNSNVDNPFGGGTKVEIKRTVAAPSVFIFPPSDEQLKSGTASVVCLLNNFYPREAKVQWKVDNALQSGNSQESVTEQDSKDSTYSLSSTLTLSKADYEKHKVYACEVTHQGLSSPVTKSFNRGEC
[1]
  IC50 (nM), killing of endogenous B cells by PBMCs, Donor 234: 0.0178 nM
[2]
  IC50 (nM), Ramos cell killing by PBMCs (test 2), Donor 234: 0.00472 nM
[3]
  IC50 (nM), Ramos cell killing by M0 macrophages, Donor 022: 0.002 nM
[4]
  IC50 (nM), Ramos cell killing by M2 macrophages, Donor 022: 0.002 nM

B2: CD79b/5C7 (1+1 A) Fc-optimized (bispecific antibody, human IgG1, kappa)
heavy 1: EQQLVETGGGLIQPGGSLRLSCAASGFTINIDYWISWVRQAPGKGLEWIGIIDPGDGTTYFAIWVSGRFTISFDNSKNTVYLQMNSLRAEDTAVYFCVREFSASAYQYDLWGPGTLVTVSSASTKGPSVFPLAPSSKSTSGGTAALGCLVKDYFPEPVTVSWNSGALTSGVHTFPAVLQSSGLYSLSSVVTVPSSSLGTQTYICNVNHKPSNTKVDKKVEPKSCDKTHTCPPCPAPELLAGPSVFLFPPKPKDTLMISRTPEVTCVVVDVSHEDPEVKFNWYVDGVEVHNAKTKPREEQYNSTYRVVSVLTVLHQDWLNGKEYKCKVSNKALPLPEEKTISKAKGQPREPQVYTLPPSRDELTKNQVSLSCAVKGFYPSDIAVEWESNGQPENNYKTTPPVLDSDGSFFLVSKLTVDKSRWQQGNVFSCSVMHEALHNHYTQKSLSLSPGK
heavy 2: EQQLVESGGGLVKPGGSLRLSCAASGFSFSRSSYMCWVRQAPGKGLEWIGCLSVGDGHTYYASWAKGRFTISKDSAKNSVYLQMNSLRAEDTAVYFCARAPSYSGDGGHGYDLWGPGTLVTVSSASTKGPSVFPLAPSSKSTSGGTAALGCLVKDYFPEPVTVSWNSGALTSGVHTFPAVLQSSGLYSLSSVVTVPSSSLGTQTYICNVNHKPSNTKVDKKVEPKSCDKTHTCPPCPAPELLAGPSVFLFPPKPKDTLMISRTPEVTCVVVDVSHEDPEVKFNWYVDGVEVHNAKTKPREEQYNSTYRVVSVLTVLHQDWLNGKEYKCKVSNKALPLPEEKTISKAKGQPREPQVYTLPPSRDELTKNQVSLWCLVKGFYPSDIAVEWESNGQPENNYKTTPPVLDSDGSFFLYSKLTVDKSRWQQGNVFSCSVMHEALHNHYTQKSLSLSPGK
light 1: B1 light
light 2: DIQMTQSPSSLSASVGDRVTITCQASESVDRNNRLAWFQQKPGKPPKLLIYTTSTLASGVPSRFSGSGSGTDFTLTISSLQPEDVATYYCAGYRGAHTDGDAFGGGTKVEIKRTVAAPSVFIFPPSDEQLKSGTASVVCLLNNFYPREAKVQWKVDNALQSGNSQESVTEQDSKDSTYSLSSTLTLSKADYEKHKVYACEVTHQGLSSPVTKSFNRGEC
[2]
  IC50 (nM), Ramos cell killing by PBMCs (test 2), Donor 234: 0.338 nM

B3: CD79b/5C7 (2+2 A) Fc-silenced (bispecific antibody, human IgG1, kappa, L234A L235A)
heavy: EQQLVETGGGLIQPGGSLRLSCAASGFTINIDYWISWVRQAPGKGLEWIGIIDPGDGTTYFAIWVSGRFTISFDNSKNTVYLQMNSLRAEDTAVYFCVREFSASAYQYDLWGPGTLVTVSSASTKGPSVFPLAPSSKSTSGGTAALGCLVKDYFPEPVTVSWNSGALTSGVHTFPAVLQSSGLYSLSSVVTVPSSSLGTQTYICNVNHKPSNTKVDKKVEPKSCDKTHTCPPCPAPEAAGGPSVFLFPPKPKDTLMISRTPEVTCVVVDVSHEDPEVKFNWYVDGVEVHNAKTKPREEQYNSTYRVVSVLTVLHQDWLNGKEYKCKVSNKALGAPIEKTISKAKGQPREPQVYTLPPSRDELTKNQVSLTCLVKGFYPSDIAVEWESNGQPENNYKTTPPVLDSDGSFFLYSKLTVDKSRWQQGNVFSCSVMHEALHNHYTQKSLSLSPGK
light: ELVMTQSPATLSVSPGERATLSCRASEDIENYLAWYQQKPGQPPRLLIYRASTLSSGVPARFSGSGSGTEFTLTISSLQSEDFAVYYCQQGYRNSNVDNPFGGGTKVEIKRTVAAPSVFIFPPSDEQLKSGTASVVCLLNNFYPREAKVQWKVDNALQSGNSQESVTEQDSKDSTYSLSSTLTLSKADYEKHKVYACEVTHQGLSSPVTKSFNRGECGGGGSGGGGSGGGGSDIQMTQSPSSLSASVGDRVTITCQASESVDRNNRLAWFQQKPGKPPKLLIYTTSTLASGVPSRFSGSGSGTDFTLTISSLQPEDVATYYCAGYRGAHTDGDAFGGGTKVEIKGGGGSGGGGSGGGGSGGGGSEQQLVESGGGLVKPGGSLRLSCAASGFSFSRSSYMCWVRQAPGKGLEWIGCLSVGDGHTYYASWAKGRFTISKDSAKNSVYLQMNSLRAEDTAVYFCARAPSYSGDGGHGYDLWGPGTLVTVSS
[3]
  IC50 (nM), Ramos cell killing by M0 macrophages, Donor 159: 0.002 nM
  IC50 (nM), Ramos cell killing by M0 macrophages, Donor 161: 0.0006 nM

B4: h3A7, humanized anti-CLEC5A antibody (antibody, V domains shown)
VH: EQQLLESGGGLVQPGGSLRLSCAASGFSFSGMYWICWVRQAPGKGLEWIACIYTGSSTTGYASWAKGRFTISKDSSKNTVYLQMNSLRAEDTAVYFCASPYGDSSHYRGLNLWGPGTLVTVSS
VL: DVQMTQSPSSLSASVGDRVTITCQASQRINNYLSWFQQKPGKPPKLLIYGAATLASGVPSRFSGSGSGTDYTLTISSLQPEDVATYYCQCTYGIPSSNYGFGGGTKVEIK
notes: also called humanized 3A7
[5]
  EC50: 0.47 nM

B5: h5C7, humanized anti-CLEC5A antibody (antibody, V domains shown)
VH: EQQLVESGGGLVKPGGSLRLSCAASGFSFSRSSYMCWVRQAPGKCLEWIGCLSVGDGHTYYASWAKGRFTISKDSAKNSVYLQMNSLRAEDTAVYFCARAPSYSGDGGHGYDLWGPGTLVTVSS
VL: DIQMTQSPSSLSASVGDRVTITCQASESVDRNNRLAWFQQKPGKPPKLLIYTTSTLASGVPSRFSGSGSGTDFTLTISSLQPEDVATYYCAGYRGAHTDGDAFGCGTKVEIK
notes: also called humanized 5C7
[5]
  EC50: 0.44 nM

B6: h6A5, humanized anti-CLEC5A antibody (antibody, V domains shown)
VH: EQQLVESGGGLVQPGGSLRLSCSASGFSFSSSYYMCWVRQAPGKGLELIACIYSSSGRTWYATWVNGRFTISRDTSKNTVYLQMNSLRAEDTAVYFCARSYAGYGGYGYAYFNLWGPGTLVTVSS
VL: EIVMTQSPATLSVSPGERATLSCQASEDIYSSLAWYQQKPGQRPRLLIYDASTLASGVPARFSGSGSGTEYTLTISSLQSEDFAVYYCQNYYDSTGSGYGAAFGGGTKVEIK
notes: also called humanized 6A5
[5]
  EC50: 0.33 nM

B7: h7G10, humanized anti-CLEC5A antibody (antibody, V domains shown)
VH: EQQLVESGGGVVQPGRSLRLSCAASGFSFSSGYDMCWVRQAPGKGLEWIACIYGGRSDNVYYARWAKGRFTISKDSSTNTVFLQMNSLRAEDTAVYFCARDYLYRGYIGGGYGRSNLWGPGTLVTVSS
VL: DVQMTQSPSSVSASVGDRVTITCRASEDIENCLAWYQQKPGKPPKLLIYQASKLPSGVPSRFSGSGSGTDYTLTISSLQPEDFATYYCQNPDYMRNTDNLFGGGTKVEIK
notes: also called humanized 7G10
[5]
  EC50: 0.22 nM

B8: h13E6, humanized anti-CLEC5A antibody (antibody, V domains shown)
VH: EQQLLESGGGLVQPGGSLRLSCAASGFSFSSSYWLCWVRQAPGKGLEWIACIYGGSSRGTYYASWAKGRFTISKDSSKNTVYLQMNSLRAEDTAVYFCASHTYTYPRFSPYFNLWGPGTLVTVSS
VL: EFVMTQSPATLSVSPGERATLSCQASEDIESSLAWYQQKPGQPPRLLIYDASDLESGVPARFSGSGSGTEYTLTISSLQSEDFAVYFCQSAYYTGSADNTFGGGTKVEIK
notes: also called humanized 13E6
[5]
  EC50: 0.12 nM
